B1: T: mature muramidase polypeptide from Chaetomium sp., novel MUR polypeptide; T in Example 4 (protein)
chain: YHIKGSIVNCRAGPGTSHAVKKTYAKGQNVQISCQTTGNIIHGNNIWDLTQDGCYVADYYVKTGTDGFVTDKCSSSGNSGVSGTSTSSVGGAAGPMKDDYPYKSNCEGTDPWLYFKCQCTSFVAWRINERLGIKFHNQYKGVNWGDANTWDDAAKRTGVTVNKTPKPGCVAQTDKGTWGHVAWVAAVGDETVTIEEYNYGGKERYGTRTVPKGEFDYIHVKN
modifications: Chaetomium sp
B2: V: mature muramidase polypeptide from Acremonium exiguum, novel MUR polypeptide; V in Example 4 (protein, listed as Acremonium exiguum)
chain: RSIPIVARAYPGLDDVQSRNAEAALGEIRAEGINPARQACLAVISTALQESELYIYANPAVPESMNYPHDREGGDQDSVGMFQQRPEWYPDIAADMSASGSTRQFLAAMLQVPGWQTMEVSALDQEVQKAEAGNLYGQRIPLATQVCDAAGF
B3: W: mature muramidase polypeptide from Chaetomium sp., novel MUR polypeptide; W in Example 4 (protein)
chain: YPITGDPLNCRSGPGTSYAIKKSYTKGADIKISCQTEGTSVNGNSIWDKTQDGCYVADFYVKTGVDGYVTKKCSGGGGDTGGGSGGIPGPVKDDYPYKSSCGGVDPWNYYKCQCTSFVAWRINKRLGIKFHNQYKGTNWGNANTWDNAAKKTGVKVNSTPKPGAIAQSNAGNYGHVAWVTAVNGNKVTIEEYNWGKREGYGKRTVDKSAFNYIHVKA
modifications: Chaetomium sp
B4: S: mature muramidase polypeptide from Aspergffius sp., novel MUR polypeptide; S in Example 4 (protein, listed as Aspergillus sp.)
chain: YPVKADVHCRSGPGTSYSIVKTYSTGTQISVSCQAAGTDVDGDQLWDKTSDGCYVSDYYVSTGSSNYVTSHCPTEYAIKTDVNCRSGPGTNYGIVKTYNQGVMVSLNCQASGTDVDGDSLWDKTSDGCYVSDYYVATGSSSYVTSACSGSSSSGGGGSSSSGNLPSLDSTQSAHARAIIGEAKSQNVGRQGCLAGIATALVESSMLMYANSNVAASLSYPHDAVGSDYDSVGLFQQRVSIYTNLAADMDAAQSAGQFFDEMKKVSGWETMNVGDLCQEVQRSAYPDRYAGEVSTAESICSAGGL
B5: N: mature muramidase polypeptide from Ovatospora brasiliensis, GH25; N in Example 4 (protein, listed as Ovatospora brasiliensis)
chain: FDISNWQPAGTVDFAAAYSSGARFVIIKATEGTSYIDPSFSSHYTKATNAGFIRGGYHFAHPGETTGAAEADYFIAHGGGWSNDGITLPGMLDLESENKGQCWGLSTSAMVSWIKSFSDRYKSRTGVYPLIYTNPSWWSACTGNSNAFVNTNPLVLARYASAPGTIPGGWPYQTIWQNSDSYAYGGDSDIFNGSLDRLKALAKGS
B6: U: mature muramidase polypeptide from Zopfiella Sp., novel MUR polypeptide; U in Example 4 (protein)
chain: YPIKGDTVNCRSGPGTSFAVKKTYAKGKDIKITCQTTGTSVNGNNIWDKTSDGCYVADYYVKTGKDGFVTDKCDASSVPKPPATKIPGPVTNDYPYKSSCGGVDPWNYYKCQCTSFVAWRVNKRLGKKFHNRYKGHAWGNANQWDEAAKQSGVKVNSTPKPGCIAQTNAGSYGHVAWVTAVGKDTVTIEEYNWNKKLGYGTRTVAKSKFNYIHLEP
modifications: Zopfiella sp
B7: Z: mature muramidase polypeptide from Penicillium wellingtonense, novel MUR polypeptide; Z in Example 4 (protein)
chain: YPITGDVVNCRSGPGTTYDVVKSYKLNADVSITCQAPGTDVKGDSVWDKTADGCYVADYYVKTGSSSYVTTKCGGDDDGGDNDGGSSGNLPGLTSTQSKHAKDIIAEAKSEDLGRQGCLAGIATAIVESNILIYANSGVPESLKYPHDAVGSDHDSVGIFQQRAMFYKDIAADMDAGKSAGQFFGKMKAVSGWKSMDVGTLCQKVQGSAYPSRYAEQVSKAEKICKAGGL
modifications: Penicillium wellingtonense
B8: Y: mature muramidase polypeptide from Ovatospora brasiliensis, novel MUR polypeptide; Y in Example 4 (protein, listed as Ovatospora brasiliensis)
chain: YPVKADSLNCRSGPGTSYKVVKTYKKGADIKISCQTEGPSVNGDNLWIKTQDGCYVADYYVKTGTNGYVAKKCSSGGSTGGGSGGGKGNLPGLNAKQSSHARAIVAQAKKDGVGLHGCEAGIATALVESGIKVYANKKVPASLKYPHDAVGSDHDSIGIFQQRAVYYPNIAADMDPARSAHQFFAKMKGVSGWKTMAVGKLCQKVQVSAYPDRYAKRVSEATKICKAAGI

Test system: rumen fluid
Assay: in vitro ruminal fermentation, 22 muramidases, 12 h (Example 4)
Design: species or system cow; DMd: unit not given here
Conditions: muramidase 0.20 mg/40 ml; for Acetate / Butyrate / Propionate: VFA production after 12 h; for DMd: dry matter digestibility after 12 h of ruminal fermentation in vitro; for Total VFA: sum of VFA after 12 h; for Carbon in VFA: summed carbon in VFA after 12 h
Protocol: The trial was performed by Alimetrics (Alimetrics Ltd, Koskelontie 19B, FIN-02920 Espoo, Finland) using 120 mL serum bottles as fermentation vessels. The fermentation preparation and procedure is presented in Kettunen et al., (Kettunen H., J. Vuorenmaa, D. Gaffney and J. Apajalahti (2016): Yeast hydrolysate product enhances ruminal fermentation in vitro. J. App. Anim. Nutr., Vol. 4; e1; page 1 of 7). In short, the method is as follows: All bottles were initially filled with 1 g of feed DM composed from corn silage, barley meal, soybean meal, at the amounts of 0.5, 0.4, and 0.1 g DM, respectively. Subsequently, the bottles were flushed with CO2 passed through a hot copper catalyst for O2 scavenging and sealed with thick butyl rubber stopper. Anaerobic, reduced and temperature adjusted (+38° C.) artificial saliva buffer solution (Modified from Agriculture Handbook No. 379, (USDA, Washington, D.C., 1975), volume of 37.65 ml), freshly strained rumen fluid (5% inoculum; volume of 2 ml), and test compounds (volume of 0.35 ml) was introduced into the fermentation vessels under the oxygen-free CO2 flow. Following rumen fluid was collected from a ruminal cannulated cow. Rumen fluid was pumped directly from the rumen into a preheated thermos and immediately closed, and transported to Alimetrics laboratory. The rumen fluid was used for inoculation within 2 hours of harvest. To ensure that both liquid and particle associated ruminal microbes were present in the inoculum both fractions were obtained. Liquid and solid fractions were strained through a metal mesh (grid size 3×3 mm) under anaerobic conditions prior to buffer dilution.
Following inoculation with rumen fluid, buffer and test solution, the vessels were sealed with the butyl rubber septum's. All fermentation vessels were inoculated in random order to prevent the possible block effects. Inoculation time for each fermentation vessel was registered and was taken into account op on each sampling to ensure that duration of the fermentation was the same for each sample. The fermentation was continued for 12 h in a gyratory shaker at +38° C. Fermentation gas produced was measured and relived by collection of the fermentation gas in syringes at time 3, 6, 9, and 12 h. Feed residues were measured after 12 h fermentation.
The trial design was a dosage response, complete randomized design with 27 treatments using 145 fermentation vessels according to table 5. […] Negative control was supplemented with the same buffer solution that was used for diluting the enzymes to reach the same liquid volume as the supplemented fermentation vessels. The ionophore Monensin (Monensin sodium salt, 90-95% TLC (Sigma Aldrich; Product code: M5273-1G)) was chosen as a positive control because it is a ruminants feed additive that affects volatile fatty acids (VFA) production.
Liquid Samples Obtained at 12 h were Analyzed for the Concentration of VFA (Acetate, Propionate, butyrate, and valerate) by GC-FID using a glass column packed with 80/120 carbopack B-DA/4% Carbowax stationary and helium as a carrier gas (Kettunen H., J. Vuorenmaa, T. Rinttilä, H. Grönberg, E. Valkonen and J. Apajalahti (2015): Natural resin acid-enriched composition as a modulator of intestinal microbiota and performance enhancer in broiler chicken. J. App. Anim. Nutr., Vol. 3; e2; page 1 of 9).
Digestibility of dry matter was quantified by determination of dry matter in the original feed matrix and in all fermentation vessels after 12 h of fermentation. Feed residues from the fermentation vessels were obtained by filtration tared sintered glass filters, washed with water and dried at 105° C. for 12 hours. Finally, the glass filters are weighed for the residual feed dry matter.
Dry matter digestibility (DMd) was calculated at the ratio between feed residues after end fermentation and the dry matter fed. […]

Molecule | Acetate [mmol/L] | Butyrate [mmol/L] | Propionate [mmol/L] | DMd | Total VFA [mmol/L] | Carbon in VFA [mmol/L]
B1 | 53.6 | 7.8 | 45.1 | 0.57 | 107 | 277
B2 | 49.2 | 7.1 | 40.6 | 0.59 | 97 | 252
B3 | 48.9 | 6.7 | 40.9 | 0.59 | 97 | 250
B4 | 49.4 | 7.1 | 41.2 | 0.58 | 98 | 254
B5 | 49.3 | 7.2 | 40.8 | 0.59 | 98 | 253
B6 | 49.1 | 7.1 | 40.5 | 0.60 | 97 | 251
B7 | 48.7 | 6.9 | 39.6 | 0.56 | 96 | 247
B8 | 50.8 | 6.1 | 43.1 | 0.57 | 100 | 258

Reference: patent publication US20210037856A1, “Ruminant Feed Composition Comprising A Muramidase” (Novozymes A/S, priority 2018, published 2021)
